Reference: patent US12649778
Like-named read-outs stand apart in the source and are kept apart here.

B1: Peptide 1593 (…) (peptide)
peptide: TDAATLAQEAGNFERC
modifications: not checked
B2: Antibody 91B4-1 (antibody, V domains shown)
VH: QSLEESGGRLVSPGGSLTLTCTVSGIDLSRFGVSWVRQAPGKGLEWTGYIHTDGNVYYASWAKGRFTISKTSTTVDLKMTSLTTEDTATYFCARGGYAADLWGQAALVTVSS
VL: DPMLTQTPSSVSAAVGGTVTISCQSSESVYKNYLAWYQQKLGQPPKLLIGATSTLVSGVPSRFKGSGSRTQFSLTISDLECDDAATYYCVGGYTGKNVFGGGTEVVVK
B3: Antibody 101G10-2 (antibody, V domains shown)
VH: QSVEESGGRLVTPGTPLTLTCTVSGFSLSSYDMTWVRQAPGKGLEYIGVISYGGSAYYASWAKGRFTISKTSTTVDLKITSPTTEDTATYFCARGDSDGSSELFNLWGQGTLVTVSS
VL: AVLTQTPSPVSAPVGGTVSINCQSSKSVYNNNCLSWYQQKPGQPPNLLIYGASTLASGVPSRFKGSGSGTQFTLTINDVQCDDAATYYCAGCFASTNDMYGFGGGSEVVVK
B4: Antibody 125D9-1 (antibody, V domains shown)
VH: QPVEESGGRLVTPGTPLTLTCTVSGFSLSSYDMTWVRQAPGKGLEYIGVVAYGGATYYASWAKGRFTISKTSTTVDLKITSPTTEDTATYFCARGDSDGSSELFNLWGQGTLVTVSS
VL: AVLTQTPSPVSAAVGGTVTINCQSSKSVYNNNCLSWYQQKQGQPPKLLIYQASTPASGVPSRFKGSGSGTQFTLTINDVQCDDAATYYCAGCFASTSDMYGFGGGTGVVVK
B5: Antibody 10G3-1 (antibody, V domains shown)
VH: QSVEESGGRLVTPGTPLTLTCTASGFSLSDDAMSWVRQAPGKGLEWIGIIGRRGKTWYANWAKGRFTISKTSTTVDLKITSPTTEDTATYFCARGYVSSDWNIYGMDLWGPGTLVTVSA
VL: QVLTQTPSPVSAAVGGTVTINCQASQSVYNNKNLAWYQQKSGQPPKLLIYEASKLASGVPSRFKGSGSGTQFTLTISGVQCDDAATYYCQGEFSCSSADCFTFGGGTEVVVK
B6: Antibody 3E9-1 (antibody, V domains shown)
VH: QSLEESGGRLVTPGGSLTLTCTVSGIDLSSNAMGWVRQAPGEGLEWIGSIYASGNTYYASWAKGRFAISKTSTTVDLKMTSLTAADTATYFCARLFNIWGPGTLVTVSS
VL: ADIVLTQTPASVSSVVGGTVTINCQASQSVFDNKNLSWFQQKPGQPPKQLIYGASTLDSGVPSRFKGSGSGTQFTLTISDMQCDDAATYYCGGRDSGNIYDFGGGTEVVVK
B7: Antibody 76H12-1 (antibody, V domains shown)
VH: QELKESGGRLVTPGGSLTLSCTASGIDLSGSAMGWVRQAPGQGLEWIGSIYVSGNTYYASWAKGRFAISRTSTTVDLKMTSLTAADTATYFCARLLNIWGPGTLVTVSS
VL: ADIVLTQTPSPVSIAVGGTVTINCQASQSVYDNKNLAWFQQKPGQPPKQLIYGASTLASGVPSRFKGSGSGTQFTLTISGMQCDDAATYYCGGRDSDNIYDFGGGTEVVVK
B8: Antibody 4G6-1 (antibody, V domains shown)
VH: QSLEESGGRLVTPGTPLTLTCTVSGIDLSSNAMGWVRQAPGEGLQWIGSIYSSGNTYYASWARGRFAISRTSTTVDLKMTSLTAADTATYFCARLFNIWGPGTLVTVSS
VL: ADIVVTQTPASVSADVGGTVTINCQASQSVYDNKNLAWFQQKPGQPPKQLIYGASTVASGVPSRFKGSGSGTQFTLTISDVQCDDAATYYCGGRDNDNIYDFGGGTEVVVK
B9: Antibody 21F10-1 (antibody, V domains shown)
VH: QSVEESGGRLVTPGTPLTLTCTVSGIDLSSNAVGWVRQAPGEGLEWIGSIYSSGNSYYASWAKGRFAISRTSTTVDLKMTRLTAADTATYFCARLFNIWGPGTLVTVS
VL: ADIVLTQTPASVSSVVGGTVAINCQASQSVYDNKNLSWFQQKPGQTPKQLIYGASTLASGVPSRFKGSGSGTQFTLTISGVQCDDAATYYCGGRDDDNIYDFGGGTEVVVK
B10: Antibody 6D10-1 (antibody, V domains shown)
VH: QSVEESGGRLVTPGTPLTLTCTVSGFSLSDVTMSWVRQAPGKGLEWIGIIGRRGRIWYANWAKGRFTISKTSPTVDLKIISPTSDDTATYFCARGAVSSDWNMYGMDLWGPGTLVTVSS
VL: QVLTQTPSSVSAPVGGTVTINCQSSQSVYNNENLAWYQQKLGQPPKLLIYGASTLASGVSSRFEGSGSGTQFALTISGVQCDDAATYYCQGEFDCSSADCFAFGGGTEVVVK
B11: Antibody 5B7-1 (antibody, V domains shown)
VH: QSVEESGGRLVTPGTPLTLTCTVSGFSLSDVTISWVRQAPGKGLKWTGIIGRRGRIRYADWAKGRFTISKTSTTVDLKITSPTTDDTATYFCARAYVSSDWNIYGMDLWGPGTLVTVSS
VL: QVLTQTASPVSAPVGGTVTINCQASQSVYNNKNLAWYQQKLGQPPKLLIYEASKLASGVSSRFEGSGSGTQFALTISGVQCDDAATYYCQGEFDCSSADCFVFGGGTEVVVK
B12: Antibody 55H8-1 (antibody, V domains shown)
VH: QSMEESGGRLVTPGTPLTLTCTVSGFSLSDHAMSWVRQAPGKGLEWIGIVGRRGRTYYASWAKGRFTISKTSTTVDLKITSPTIEDTATYFCARGYVSSDWNIYGMDLWGPGTLVTVSS
VL: QVLTQTPSPVSAAVGGTVTINCQASQSVYNNKNLAWYQQKPGQPPKLLIYEASTLASGVSSRFKGSGSGTQFTLTISGVQCDDAATYYCQGEFDCSSADCFAFGGGTEVVVK
B13: monoclonal antibody 65D3-1 (antibody, V domains shown)
VH: QSLEESGGRLVTPGGSLTLTCTVSGFSLSTHDISWVRQAPGKGLEWIGVIARRGSTYYASWAKGRFTISKTSTTVDLKITSPTIEDTATYFCAREEFDFWGQGTLVTVSS
VL: AVLTQTASPVSAAVGGTVTISCQSSQSVYNNKELSWFQQKPGQPPKLLISYASTLASGVPSRFKGSGSGTQFTLTISDLECDDAATYYCLGGYASTIDMWAFGGGTEVVVK
B14: 65D3 wild-type recombinant IgG (VH + VL) (antibody, V domains shown)
VH: QSLEESGGRLVTPGGSLTLTCTVSGFSLSTHDISWVRQAPGKGLEWIGVIARRGSTYYASWAKGRFTISKTSTTVDLKITSPTIEDTATYFCAREEFDFWGQGTLVTVSS
VL: AVLTQTASPVSAAVGGTVTISCQSSQSVYNNKELSWFQQKPGQPPKLLISYASTLASGVPSRFKGSGSGTQFTLTISDLECDDAATYYCLGGYASTIDMWAFGGGTEVVVK
B15: Antibody 67G8-2 (antibody, V domains shown)
VH: QSVEESGGRLVTPGTPLTLTCTVSGFSLGNYDGHWVRQTPEKGLEWIGVIATIGDTYYASWAKGRFSISKTSATVELRITSPTTEDTATYFCVRGDSRTSNEIFNLWGQGTLVTVSS
VL: AVLTQTPSPVSAAVGGTLTINCQSTRSVHNNICLSWYQQKPGQPPKLLIYSASTLASGVPSRFKGSGSGTQFTLAINDVQCGDAATYYCAGCFPSKSDMYGFGGGTEVVVK
B16: Antibody 135A6-1 (antibody, V domains shown)
VH: QSVEESGGRLVTPGTPLTLTCTVSGFSLGNYDISWVRQAPGKGLEWIGVIATVGDTYYASWAKGRFTISKTSATVDLKITSPTTEDTATYFCVRGDSPSTNEIFGLWGQGTLVTVSS
VL: AVLTQTPSPVSAAVGGTLTINCQSSRTVYNNICLSWYQQKLGQPPKLLIYGASTLTSGVPSRFRGSGSGTQFTLTINDVQCGDAATYYCAGCFPSTSDMYGFGGGTEVVVK

Columns and labels:
[1] = molecular target: monoclonal antibody 65D3-1
[2] = molecular target: Peptide 1593 (…) (Mycobacterium tuberculosis); assay: indirect ELISA, supernatant on 1 ug/ml coated peptide
[3] = molecular target: Peptide 2004 (…) (Mycobacterium tuberculosis)
[4] = molecular target: Peptide 1593 (…) (Mycobacterium tuberculosis)
[5] = molecular target: Peptide 1593 (…) (Mycobacterium tuberculosis); assay: SPR (Biacore 8K), antibody immobilised, peptide as analyte
[6] = molecular target: Peptide 1593 (…) (Mycobacterium tuberculosis); assay: SPR (Biacore 8K), antibody amine-coupled to CM5, peptide as analyte, 25 C
[7] = molecular target: Peptide 1593 (…) (Mycobacterium tuberculosis); assay: SPR (Biacore), IgG amine-coupled, peptide as analyte
[8] = molecular target: Peptide 1593 (…) (Mycobacterium tuberculosis); assay: indirect ELISA, recombinant antibody on 1 ug/ml coated peptide
[9] = molecular target: Peptide 1593 (…) (Mycobacterium tuberculosis); remark: listed apart in the source

Binder	OD450, supernatant 1:90 [2]	OD450, supernatant 1:270 [2]	OD450, supernatant 1:810 [2]	OD450, supernatant 1:2,430 [2]	OD450, supernatant undiluted [2]	Titer [2]	rank by relative ELISA signal across the dilution series (1 = highest) [3]	also measured
B1								IC50 (read off the curve) [1]: 2 nM
B2	3.04 OD450	2.27 OD450	1.3 OD450	0.618 OD450	3.12 OD450	> 2430 dilution 1:x		
B3	3.22 OD450	3.21 OD450	3.1 OD450	2.41 OD450	3.23 OD450	> 2430 dilution 1:x		
B4	3.37 OD450	3.31 OD450	3.27 OD450	2.85 OD450	3.2 OD450	> 2430 dilution 1:x		
B5							5	
B6							7	
B7							8	
B8							10	
B9							11	
B10							2	
B11							3	
B12							4	
B13								koff [4]: 0.000238 s⁻¹; kon [4]: 138000 M⁻¹ s⁻¹; Kd [5]: 1.72 nM; Kd [6]: 1.72 nM
B14								Kd [7]: 0.755 nM; koff [7]: 0.00017 s⁻¹; kon [7]: 225000 M⁻¹ s⁻¹
B15	3.1 OD450	2.33 OD450	1.31 OD450	0.616 OD450	3.22 OD450	> 2430 dilution 1:x		OD450 at 1.95 ng/ml (1:512,000) [8]: 0.876 OD450; OD450 at 3.90 ng/ml (1:256,000) [8]: 1.21 OD450; OD450 at 7.81 ng/ml (1:128,000) [8]: 1.66 OD450; OD450 at 15.62 ng/ml (1:64,000) [8]: 2.14 OD450; OD450 at 31.25 ng/ml (1:32,000) [8]: 2.45 OD450; OD450 at 62.50 ng/ml (1:16,000) [8]: 2.61 OD450; OD450 at 125.00 ng/ml (1:8,000) [8]: 2.76 OD450; OD450 at 250.00 ng/ml (1:4,000) [8]: 2.8 OD450; OD450 at 500.00 ng/ml (1:2,000) [8]: 2.83 OD450; OD450 at 1,000.00 ng/ml (1:1,000) [8]: 2.85 OD450; Titer [8]: > 512000 dilution 1:x; Kd [9]: 0.101 nM; koff [9]: 3.02e-05 s⁻¹; kon [9]: 299000 M⁻¹ s⁻¹
B16	3.46 OD450	3.22 OD450	2.68 OD450	1.69 OD450	3.27 OD450	> 2430 dilution 1:x		
